Assay results reported in patent US20250084176A1.

Molecular target: mouse CD137, full length, on cells (mouse) (UniProt P20334)
Assay: cell-based or functional assay

Chain of mouse CD137, full length, on cells (mouse) (P20334 24-256): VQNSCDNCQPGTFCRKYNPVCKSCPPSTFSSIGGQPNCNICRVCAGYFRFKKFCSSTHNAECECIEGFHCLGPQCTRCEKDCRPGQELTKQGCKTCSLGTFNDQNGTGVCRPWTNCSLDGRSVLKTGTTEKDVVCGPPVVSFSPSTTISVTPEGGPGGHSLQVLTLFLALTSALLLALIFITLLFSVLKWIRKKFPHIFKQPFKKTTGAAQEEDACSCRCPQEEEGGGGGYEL

IL-2 release, mouse CD137 DO11.10 T cell activation assay, Protein L: +XL EC50: 2.26 nM
IL-2 release, mouse CD137 DO11.10 T cell activation assay, Protein L: +XL Emax: 21300 pg/mL
Substance: G1-AA/Lob12.3 (antibody)
